The record followed here is article PMC5614565.

Usually pKd stands for the Kd on a negative log10 scale, so that one unit is a factor of ten. A lower pKd goes with a large Kd.

pKd: −log10 of the molar value.

Assay [1] addresses mCherry-(GGS)6-Rac1(1-188)-His8 (UniProt P63000). Briefly: membrane recruitment assay on supported lipid bilayers (TIRF microscopy). As to conditions: mCherry-Rac1 Q61L/P29S-His8 anchored on bilayers containing 2% Ni2+-NTA-DGS lipid; parent: est. 0.72; read off a plot.
Assay [2] has as its target EGFP-tagged WRC, wild type (Sra1, Nap1, MBP-EGFP-HSPC300, MBP-Abi2(1-158), MBP-WAVE1(1-230)), Q7L576;Q9Y2A7;Q8WUW1;Q9NYB9;Q92558. The assay is described as above. The note with it: WT EGFP-WRC; parent value is Rac1 WT loaded with GMPPNP (Rac1 WT GDP bar est. 0.045); parent: est. 0.23; read off a plot.
The target of assay [3] is GST-Rac1(1-188) (Q61L/P29S) (UniProt P63000). Briefly: pull-down; equilibrium pull-down (EPD): 0.1 μM ΔWRC230, 0.01 to 140 μM GST-Rac1(1-188) (Q61L/P29S), Glutathione Sepharose; 20 mM HEPES pH 7, 100 mM NaCl, 5% glycerol, 2 mM MgCl2, 5 mM β-mercaptoethanol, 0.05% Triton X100; 4°C, 30 min; unbound WRC in the supernatant quantified by SDS-PAGE; fits in DynaFit.
Assay [4] has the same target. The assay can be described thus: other; GST-dimer model, KD,2 (second WRC). The note with it: complex; chains chain;chain;chain;chain;chain.
For assay [5] the target is unchanged. The assay can be described thus: other; GST-dimer model, KD,1. As to conditions: complex; chains chain;chain;chain;chain;chain.

Turning to “EGFP-tagged WRC, wild type (Sra1, Nap1, MBP-EGFP-HSPC300, MBP-Abi2(1-158), MBP-WAVE1(1-230)) (from UniProt Q7L576;Q9Y2A7;Q8WUW1;Q9NYB9;Q92558) C179R”, the response in assay [1] was determined as 0.36.

Take “EGFP-tagged WRC, wild type (Sra1, Nap1, MBP-EGFP-HSPC300, MBP-Abi2(1-158), MBP-WAVE1(1-230)) (from UniProt Q7L576;Q9Y2A7;Q8WUW1;Q9NYB9;Q92558) S969F”: the response in assay [1] was 0.8.

Consider “EGFP-tagged WRC, wild type (Sra1, Nap1, MBP-EGFP-HSPC300, MBP-Abi2(1-158), MBP-WAVE1(1-230)) (from UniProt Q7L576;Q9Y2A7;Q8WUW1;Q9NYB9;Q92558) Y967A”, for which, in assay [1], the response was determined as 0.12.

On to “mCherry-Rac1-His8 wild type (GMPPNP) Q61L; P29S”, for which, in assay [2], the response amounted to 0.72.

“ΔWRC230 with Sra1 C179R (Sra1, Nap1, HSPC300, MBP-Abi2(1-158), MBP-WAVE1(1-230)), Q7L576 1-1253; Q9Y2A7 1-1128; Q8WUW1 1-75; Q9NYB9 1-158; Q92558 1-230”: the pKd is 6.58 in assay [3], 6.84 in assay [4] and 6.70 in assay [5].

In assay [3], “ΔWRC230 with Sra1 Y967A (Sra1, Nap1, HSPC300, MBP-Abi2(1-158), MBP-WAVE1(1-230)), Q7L576 1-1253; Q9Y2A7 1-1128; Q8WUW1 1-75; Q9NYB9 1-158; Q92558 1-230” displayed a KD,A (A Site, first WRC, GST-dimer model) of 11500 nM; a KD,A (A Site, single-site model) of 10800 nM; a KD,A (A Site, two-site model) of 9600 nM; a KD,A’ (A Site of the second WRC, GST-dimer model) of 33 nM.

Turning to “ΔWRC230, wild type (Sra1, Nap1, HSPC300, MBP-Abi2(1-158), MBP-WAVE1(1-230)), Q7L576 1-1253; Q9Y2A7 1-1128; Q8WUW1 1-75; Q9NYB9 1-158; Q92558 1-230”, in assay [3], the KD,A(D) (A Site of the D Site-bound WRC, sequential two-site model) amounted to 262 nM; the KD,D (D Site, sequential two-site model) is 169 nM; the KD,D (D Site, single-site model) was found to be 106 nM. Further, the negative logarithm of the Kd (pKd) in assay [5] was 7.17.
